Data reported in patent publication US20130209454A1 (CALIFORNIA INSTITUTE OF TECHNOLOGY, published 2013).
Where two headings read alike, the source gives them in different places.

Experiments:
Test in all cases: cell-based or functional assay
[1] = molecular target: HIV-1 Env of strain QH0692.42 (HIV-1)
[2] = molecular target: HIV-1 Env of strain ZM214M.PL15 (HIV-1)
[3] = molecular target: HIV-1 Env of strain SC422661.8 (HIV-1)
[4] = molecular target: HIV-1 Env of strain AC10.0.29 (HIV-1)
[5] = molecular target: HIV-1 Env of strain CAP45.2.00.G3 (HIV-1)
[6] = molecular target: HIV-1 Env of strain T257-31 (HIV-1)
[7] = molecular target: HIV-1 Env of strain TRO.11 (HIV-1)
[8] = molecular target: HIV-1 strain CAP45.2.00.G3 envelope (gp120) (HIV-1)
[9] = molecular target: HIV-1 strain AC10.0.29 envelope (gp120) (HIV-1)
[10] = molecular target: HIV-1 strain TRO.11 envelope (gp120) (HIV-1)
[11] = molecular target: HIV-1 strain ZM214M.PL15 envelope (gp120) (HIV-1)
[12] = molecular target: HIV-1 strain T257-31 envelope (gp120) (HIV-1)
[13] = molecular target: HIV-1 strain SC422661.8 envelope (gp120) (HIV-1)
[14] = molecular target: HIV-1 strain QH0692.42 envelope (gp120) (HIV-1)
[15] = molecular target: HIV-1 strain CAP210.2.00.E8 envelope (gp120) (HIV-1)
[16] = molecular target: HIV-1 strain CAP45.2.00.G3 envelope (gp120) (HIV-1); remark: listed apart in the source
[17] = molecular target: HIV-1 strain AC10.0.29 envelope (gp120) (HIV-1); remark: listed apart in the source
[18] = molecular target: HIV-1 strain TRO.11 envelope (gp120) (HIV-1); remark: listed apart in the source
[19] = molecular target: HIV-1 strain Du172.17 envelope (gp120) (HIV-1)
[20] = molecular target: HIV-1 strain SC422661.8 envelope (gp120) (HIV-1); remark: listed apart in the source

| Binder | neutralization IC50 [15] [µg/mL] | neutralization IC50 [16] [µg/mL] | neutralization IC50 [17] [µg/mL] | neutralization IC50 [18] [µg/mL] | neutralization IC50 [19] [µg/mL] | neutralization IC50 [20] [µg/mL] | other results |
| --- | --- | --- | --- | --- | --- | --- | --- |
| NIH45-46 Δ99a-99d IgG (antibody, V domains shown) VH: QVRLSQSGGQMKKPGESMRLSCRASGYEFLNCPINWIRLAPGRRPEWMGWLKPRGGAVNYARKFQGRVTMTRDVYSDTAFLELRSLTSDDTAVYFCTRGKYCTYNWDFEHWGRGAPVTVSS VL: EIVLTQSPATLSLSPGETAIISCRTSQSGSLAWYQQRPGQAPRLVIYSGSTRAAGIPDRFSGSRWGADYNLSISNLESGDFGVYYCQQYEFFGQGTKVQVDI | – | – | – | – | – | – | neutralization IC50 [1]: 3.7 µg/mL; neutralization IC50 [2]: 2.2 µg/mL; neutralization IC50 [3]: 1.4 µg/mL; neutralization IC50 [4]: 13 µg/mL; neutralization IC50 [5]: > 50 µg/mL; neutralization IC50 [6]: 7 µg/mL; neutralization IC50 [7]: > 50 µg/mL |
| NIH45-46 heavy chain paired with the VRC01 light chain (IgG) (antibody, V domains shown) VH: QVRLSQSGGQMKKPGESMRLSCRASGYEFLNCPINWIRLAPGRRPEWMGWLKPRGGAVNYARKFQGRVTMTRDVYSDTAFLELRSLTSDDTAVYFCTRGKYCTARDYYNWDFEHWGRGAPVTVSS VL: EIVLTQSPGTLSLSPGETAIISCRTSQYGSLAWYQQRPGQAPRLVIYSGSTRAAGIPDRFSGSRWGPDYNLTISNLESGDFGVYYCQQYEFFGQGTKVQVDI | – | – | – | – | – | – | neutralization IC50 [8]: 2.1 µg/mL; neutralization IC50 [9]: 1 µg/mL; neutralization IC50 [10]: 0.3 µg/mL; neutralization IC50 [11]: 0.6 µg/mL; neutralization IC50 [12]: 0.6 µg/mL; neutralization IC50 [13]: 0.2 µg/mL; neutralization IC50 [14]: 0.9 µg/mL |
| 12A12 IgG (antibody, V domains shown) VH: SQHLVQSGTQVKKPGASVRISCQASGYSFTDYVLHWWRQAPGQGLEWMGWIKPVYGARNYARRFQGRINFDRDIYREIAFMDLSGLRSDDTALYFCARDGSGDDTSWHLDPWGQGTLVIVSA VL: DIQMTQSPSSLSASVGDRVTITCQAGQGIGSSLQWYQQKPGKAPKLLVHGASNLHRGVPSRFSGSGFHTTFSLTISGLQRDDFATYFCAVLEFFGPGTKVEIKR | > 50 | 0.4 | 0.6 | 0.3 | 0.2 | 0.2 | – |
| 3BNC55 IgG (antibody, V domains shown) VH: QVQLVQSGTAVKRPGASVRVSCQASGYTFTDYFIYWWRQAPGQGLEWLGWINPLTSQPSYPSRFQGRLTLTRDTFDEMLYMDLRGLRSDDTGIYFCARRHSDYCDFDIWGSGTQIIVSS VL: DIQMTQSPSSLSASVGDKVTITCQTSAGYLNWYQQRRGRAPKLLMYDGSRLVTGVPSRFSGRRWGTQYNLTIGSLQPEDIATYYCQVYEFFGPGTRLDLKS | > 50 | > 50 | > 50 | 7.6 | 2 | 0.3 | – |
| 3BNC60 IgG (antibody, V domains shown) VH: QVHLSQSGAAVTKPGASVRVSCEASGYKISDHFIHWWRQAPGQGLQWVGWINPKTGQPNNPRQFQGRVSLTRQASWDFDTYSFYMDLKAVRSDDTAIYFCARQRSDFWDFDVWGSGTQVTVSS VL: DIQMTQSPSSLSARVGDTVTITCQANGYLNWYQQRRGKAPKLLIYDGSKLERGVPARFSGRRWGQEYNLTINNLQPEDVATYFCQVYEFIVPGTRLDLKRTVA | 4.7 | 10 | 13 | 0.07 | 0.05 | 0.1 | – |
| 3BNC117 IgG (antibody, V domains shown) VH: QVQLLQSGAAVTKPGASVRVSCEASGYNIRDYFIHWWRQAPGQGLQWVGWINPKTGQPNNPRQFQGRVSLTRHASWDFDTFSFYMDLKALRSDDTAVYFCARQRSDYWDFDVWGSGTQVTVSS VL: DIQMTQSPSSLSASVGDTVTITCQANGYLNWYQQRRGKAPKLLIYDGSKLERGVPSRFSGRRWGQEYNLTINNLQPEDIATYFCQVYEFVVPGTRLDLKRTVA | 11 | 16 | 6.5 | 0.6 | 0.04 | 0.07 | – |
